Data on three proteins can be found in patent publication US20240294895A1, “ENZYMATIC COMPOSITIONS FOR CARBOHYDRATE ANTIGEN CLEAVAGE ON DONOR ORGANS, METHODS AND USES ASSOCIATED THEREWITH” (THE UNIVERSITY OF BRITISH COLUMBIA, priority 2018, published 2024).

Broadly, the Km is the substrate concentration at which the rate is half of its maximum. A word on the kcat: it is the maximal rate divided by the concentration of active sites. As a reminder, the kcat/Km is the second-order rate constant that governs catalysis at low substrate concentration.

Common to all, as to assay type: biochemical, Flavonifractor plautii
Common to all, as to settings: other: 100 mM NaH2PO4, pH 7.4, 37° C.

Substrate in series [1]: CC(=O)N[C@H]1[C@H](O[C@H]2[C@@H](O)[C@@H](CO)O[C@@H](Oc3ccc4c(C)cc(=O)oc4c3)[C@@H]2O)O[C@H](CO)[C@@H](O)[C@@H]1O[C@@H]1O[C@H](CO)[C@H](O)[C@H](O[C@H]2O[C@H](CO)[C@H](O)[C@H](O)[C@H]2N)[C@H]1O[C@@H]1O[C@@H](C)[C@@H](O)[C@@H](O)[C@@H]1O
Description: Kinetic parameters of FpGalNase_truncA (coupled fluorescence assay, MU release). The method, then:
(§1) All kinetic assays utilizing 4-methylumbelliferone as leaving group were performed through measurement of fluorescence. To avoid measurement errors based on the inner filter effect (Palmier 2007) standard curves were used to validate the linear range of the fluorophore.
Michaelis-Menten parameter was determined for GalN antigen subtype 1penta-MU and A antigen subtype 1penta-MU in 100 mM NaH2PO4, pH 7.4 at 37° C. Reaction was performed in 100 μl with 3.4 nM FpGalactosaminidase (5.31 nM FpGalNase_truncA) and 0.1 mg/mL SpHex, AfcA, 0.2 mg/mL BgaC and varying concentrations of substrate (5 μM-2 mM). The reactions were run as a series of four with controls (no FpGalactosaminidase) as duplicates. The fluorescence signal (365/435 nm) resulting from MU release by hydrolysis was monitored by Synergy H1™ plate reader [BioTek™] and converted to concentration using MU standard concentration curves determined under identical reaction conditions. Initial rates (μM/s) were determined and plotted in Grafit 7.0™ to determine the kinetic parameters.

Substrate in series [2]: CC(=O)N[C@H]1[C@@H](O[C@H]2[C@@H](O)[C@@H](CO)O[C@@H](O[C@H]3[C@H](O)[C@@H](CO)O[C@@H](O[C@H]4[C@@H](O)[C@@H](CO)O[C@@H](Oc5ccc6c(C)cc(=O)oc6c5)[C@@H]4O)[C@@H]3NC(C)=O)[C@@H]2O[C@@H]2O[C@@H](C)[C@@H](O)[C@@H](O)[C@@H]2O)O[C@H](CO)[C@H](O)[C@@H]1O
Description: Kinetic parameters of FpGalNAcDeAc_D1+2 (coupled fluorescence assay, MU release). The method, then: as §1
(§2) Michaelis-Menten parameters were determined for A antigen subtype 1penta-MU in 100 mM NaH2PO4, pH 7.4 at 37° C. using the coupled assays described previously (Kwan 2015). The assay was modified to allow detection of cleavage of the subtype 1 (and later 4), by use of BgaC (Jeong 2009) instead of BgaA (Singh 2014) as β-galactosidase. In addition, since A antigen subtype 1penta-MU contains an additional galactose, the concentration of BgaC was increased to 0.2 mg/mL to compensate for its need to cleave both the Gal-β-1,3-B-GlcNAc-β-1,3-Gal-β-MU and Gal-β-MU. Further, FpGalactosaminidase was included to allow the cleavage of the galactosamine-containing intermediate. Reaction setup in 100 μl was 3 nM FpGalNacDeacetylase (4.52 nM FpGalNacDeAc_D1ext, 3.55 nM FpGalNacDeAc_D1+2) and 0.01 mg/mL FpGalactosaminidase, 0.1 mg/mL SpHex, AfcA, 0.2 mg/mL BgaC and varying concentrations of substrate (5 μM-2.5 mM). The reactions were run as a series of four with controls (no FpGalNacDeacetylase) as duplicates. The fluorescence signal (365/435 nm) resulting from MU release by hydrolysis was monitored on a Synergy H1™ plate reader (BioTek™) and converted to concentration using MU standard concentration curves determined under identical reaction conditions. Initial rates (μM/s) were determined and plotted in Grafit 7.0 to determine the kinetic parameters.

Substrate in series [3]: CC(=O)N[C@H]1[C@@H](O[C@H]2[C@@H](O)[C@@H](CO)O[C@@H](O[C@H]3[C@H](O)[C@@H](CO)O[C@@H](O[C@H]4[C@@H](O)[C@@H](CO)O[C@@H](Oc5ccc6c(C)cc(=O)oc6c5)[C@@H]4O)[C@@H]3NC(C)=O)[C@@H]2O[C@@H]2O[C@@H](C)[C@@H](O)[C@@H](O)[C@@H]2O)O[C@H](CO)[C@H](O)[C@@H]1O
Description: Kinetic parameters of FpGalNAcDeAc_D1ext (coupled fluorescence assay, MU release). The method, then:
as §1, §2

B1: Flavonifractor plautii Galactosaminidase (FpGalNase) truncation _truncA (Flavonifractor plautii) (protein)
chain: AAPATDTGNAGLIAEGDYAIAGNGVRVTYDADGQTITLYRTEGSGLIQMSKPSPLGGPVIGGQEVQDFSHISCDVEQSTSGVMGSGQRMTITSQSMSTGLIRTYVLETSDIEEGVVYTATSYEAGASDVEVSWFIGSVYELYGAEDRIWSYNGGGEGPMHYYDTLQKIDLTDSGKFSRENKQDDTAASIPVSDIYIADGGITVGDASATRREVHTPVQETSDSAQVSIGWPGKVIAAGSVIEIGESFAVVHPGDYYNGLRGYKNAMDHLGVIMPAPGDIPDSSYDLRWESWGWGFNWTIDLIIGKLDELQAAGVKQITLDDGWYTNAGDWALNPEKFPNGASDALRLTDAIHEHGMTALLWWRPCDGGIDSILYQQHPEYFVMDADGRPARLPTPGGGTNPSLGYALCPMADGAIASQVDFVNRAMNDWGFDGFKGDYVWSMPECYNPAHNHASPEESTEKQSEIYRVSYEAMVANDPNVFNLLCNCGTPQDYYSLPYMTQIATADPTSVDQTRRRVKAYKALMGDYFPVTADHNNIWYPSAVGTGSVLIEKRDLSGTAKEEYEKWLGIADTVQLQKGRFIGDLYSYGFDPYETYVVEKDGVMYYAFYKDGSKYSPTGYPDIELKGLDPNKMYRIVDYVNDRVVATNLMGDNAVFNTRFSDYLLVKAVEISEPDPEPVDPDYGFTSVDDRDEALIYTGTWHDDNNASFSEGTARYTNSTDASVVFSFTGTSIRWYGQRDTNFGTAEVYLDDELKTTVDANGAAEAGVCLFEALDLPAAEHTIKIVCKSGVIDIDRFAYEAATLEPIYEKVDALSDRITYVGNWEEYHNSEFYMGNAMRTDEAGAYAELTFRGTAVRLYAEMSFNFGTADVYLDGELVENIILYGQEATGQLMFERTGLEEGEHTIRLVQNAWNINLDYISYLPEQDQPTPPETTVTVDAMDAQLVYTGVWNDDYHDVFQEGTARYASSAGASVEFEFTGSEIRWYGQNDSNFGVASVYIDNEFVQQVNVNGAAAVGKLLFQKADLPAGSHTIRIVCDTPVIDLDYLTYTTNA
Consider B1, for which, in series [1], the Michaelis constant (Km) was 54.7 ± 3.1 µM, the catalytic constant (kcat) is 1.86 s⁻¹ and the specificity constant (kcat/Km) was 34080 M⁻¹ s⁻¹.

B2: Flavonifractor plautii GalNAcDeacetylase (FpGalNAcDeAc) truncation _D1 + 2 (Flavonifractor plautii) (protein)
chain: ADSSESALNKAPGYQDFPAYYSDSAHADDQVTHPDVVVLEEPWNGYRYWAVYTPNVMRISIYENPSIVASSDGVHWVEPEGLSNPIEPQPPSTRYHNCDADMVYNAEYDAMMAYWNWADDQGGGVGAEVRLRISYDGVHWGVPVTYDEMTRVWSKPTSDAERQVADGEDDFITAIASPDRYDMLSPTIVYDDFRDVFILWANNTGDVGYQNGQANFVEMRYSDDGITWGEPVRVNGFLGLDENGQQLAPWHQDVQYVPDLKEFVCISQCFAGRNPDGSVLHLTTSKDGVNWEQVGTKPLLSPGPDGSWDDFQIYRSSFYYEPGSSAGDGTMRVWYSALQKDTNNKMVADSSGNLTIQAKSEDDRIWRIGYAENSFVEMMRVLLDDPGYTTPALVSGNSLMLSAETTSLPTGDVMKLETSFAPVDTSDQVVKYTSSDPDVATVDEFGTITGVSVGSARIMAETREGLSDDLEIAVVENPYTLIPQSNMTATATSVYGGTTEGPASNVLDGNVRTIWHTNYAPKDELPQSITVSFDQPYTVGRFVYTPRQNGTNGIISEYELYAIHQDGSKDLVASGSDWALDAKDKTVSFAPVEAVGLELKAIAGAGGFGTAAELNVYAYGPIEPAPVYVPVDDRDASLVFTGAWNSDSNGSFYEGTARYTNEIGASVEFTFVGTAIRWYGQNDVNFGAAEVYVDGVLAGEVNVYGPAAAQQLLFEADGLAYGKHTIRIVCVSPVVDFDYFSYVGE
For B2, in series [2], the Km is 265 ± 43 µM, the turnover number (kcat) stood at 9.99 s⁻¹ and the kcat/Km was found to be 37590 M⁻¹ s⁻¹.

B3: Flavonifractor plautii GalNAcDeacetylase (FpGalNAcDeAc) truncation _D1ext (Flavonifractor plautii) (protein)
chain: ADSSESALNKAPGYQDFPAYYSDSAHADDQVTHPDVVVLEEPWNGYRYWAVYTPNVMRISIYENPSIVASSDGVHWVEPEGLSNPIEPQPPSTRYHNCDADMVYNAEYDAMMAYWNWADDQGGGVGAEVRLRISYDGVHWGVPVTYDEMTRVWSKPTSDAERQVADGEDDFITAIASPDRYDMLSPTIVYDDFRDVFILWANNTGDVGYQNGQANFVEMRYSDDGITWGEPVRVNGFLGLDENGQQLAPWHQDVQYVPDLKEFVCISQCFAGRNPDGSVLHLTTSKDGVNWEQVGTKPLLSPGPDGSWDDFQIYRSSFYYEPGSSAGDGTMRVWYSALQKDTNNKMVADSSGNLTIQAKSEDDRIWRIGYAENSFVEMMRVLLDDPGYTTPALVSGNSLMLSAETTSLPTGDVMKLETSFAPVDTSDQVVKYTSSDPDVATVDEFGTITGVSVGSARIMAETREGLSDDLEIAVVENPYTLIPQSNMTATATSVYGGTTEGPASNVLDGNVRTIWHTNYAPKDELPQSITVSFDQPYTVGRFVYTPRQNGTNGIISEYELYAIHQDGSKDLVASGSDWALDAKDKTVSFAPVEAVGLELKAIAGAGGFGTAAELNVYAYGPIEPAPVYVPVDDRDASLVFTGAWNSDSNGSFYEGTARYTNEIGASVEFTFVGTAIRWYGQNDVNFGAAEVYVDGVLAGEVNVYGPAAAQQLLFEADGLAYGKHTIRIVCVSPVVDFDYFSYVGE
Regarding B3, in series [3], the Km is 212 ± 37 µM, the kcat worked out at 5.37 s⁻¹ and the catalytic efficiency (kcat/Km) was 25230 M⁻¹ s⁻¹.
